Tests used:
cOML4-Flag = biological target: T1, cOML4-Flag
T1 chain: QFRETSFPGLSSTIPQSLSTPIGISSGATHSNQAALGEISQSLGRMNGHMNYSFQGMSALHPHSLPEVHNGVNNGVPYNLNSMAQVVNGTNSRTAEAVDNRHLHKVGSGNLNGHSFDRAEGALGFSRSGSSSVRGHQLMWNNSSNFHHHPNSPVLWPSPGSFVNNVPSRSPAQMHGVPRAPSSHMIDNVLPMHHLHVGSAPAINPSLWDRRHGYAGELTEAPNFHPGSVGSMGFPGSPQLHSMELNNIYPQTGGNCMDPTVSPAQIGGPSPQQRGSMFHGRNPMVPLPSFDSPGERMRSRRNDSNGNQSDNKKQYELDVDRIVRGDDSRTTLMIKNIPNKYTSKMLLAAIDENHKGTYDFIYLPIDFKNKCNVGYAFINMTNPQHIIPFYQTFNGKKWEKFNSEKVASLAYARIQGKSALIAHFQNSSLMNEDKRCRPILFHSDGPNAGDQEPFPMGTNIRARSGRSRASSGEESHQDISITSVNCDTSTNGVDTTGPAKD

OML4-Flag = biological target: T2, OML4-Flag
T2 chain: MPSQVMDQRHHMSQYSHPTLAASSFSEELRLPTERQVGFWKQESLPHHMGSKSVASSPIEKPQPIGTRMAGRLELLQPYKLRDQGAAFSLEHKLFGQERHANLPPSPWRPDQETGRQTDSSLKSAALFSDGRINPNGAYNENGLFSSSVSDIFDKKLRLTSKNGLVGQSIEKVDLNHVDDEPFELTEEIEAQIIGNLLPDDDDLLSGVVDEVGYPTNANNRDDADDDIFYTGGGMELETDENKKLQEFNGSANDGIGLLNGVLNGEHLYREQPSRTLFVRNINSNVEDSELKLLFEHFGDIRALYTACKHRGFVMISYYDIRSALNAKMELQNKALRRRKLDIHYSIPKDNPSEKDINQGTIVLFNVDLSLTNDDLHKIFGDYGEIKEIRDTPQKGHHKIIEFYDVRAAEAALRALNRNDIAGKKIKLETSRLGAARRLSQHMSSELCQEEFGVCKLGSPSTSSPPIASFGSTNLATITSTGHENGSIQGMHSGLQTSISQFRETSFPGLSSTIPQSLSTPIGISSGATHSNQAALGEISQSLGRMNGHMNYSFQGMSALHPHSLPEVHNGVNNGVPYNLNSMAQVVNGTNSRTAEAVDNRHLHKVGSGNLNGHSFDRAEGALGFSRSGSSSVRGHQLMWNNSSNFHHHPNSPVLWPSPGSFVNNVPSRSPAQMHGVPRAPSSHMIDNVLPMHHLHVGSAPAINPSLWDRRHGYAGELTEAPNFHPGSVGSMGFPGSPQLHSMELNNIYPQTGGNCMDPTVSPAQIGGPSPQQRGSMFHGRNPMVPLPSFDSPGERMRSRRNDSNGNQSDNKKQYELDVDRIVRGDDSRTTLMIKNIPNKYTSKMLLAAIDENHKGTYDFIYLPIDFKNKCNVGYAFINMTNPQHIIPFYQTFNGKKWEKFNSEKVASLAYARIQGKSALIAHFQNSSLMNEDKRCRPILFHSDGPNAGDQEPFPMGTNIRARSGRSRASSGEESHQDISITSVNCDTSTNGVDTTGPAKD

nOML4-Flag = biological target: T3, nOML4-Flag
T3 chain: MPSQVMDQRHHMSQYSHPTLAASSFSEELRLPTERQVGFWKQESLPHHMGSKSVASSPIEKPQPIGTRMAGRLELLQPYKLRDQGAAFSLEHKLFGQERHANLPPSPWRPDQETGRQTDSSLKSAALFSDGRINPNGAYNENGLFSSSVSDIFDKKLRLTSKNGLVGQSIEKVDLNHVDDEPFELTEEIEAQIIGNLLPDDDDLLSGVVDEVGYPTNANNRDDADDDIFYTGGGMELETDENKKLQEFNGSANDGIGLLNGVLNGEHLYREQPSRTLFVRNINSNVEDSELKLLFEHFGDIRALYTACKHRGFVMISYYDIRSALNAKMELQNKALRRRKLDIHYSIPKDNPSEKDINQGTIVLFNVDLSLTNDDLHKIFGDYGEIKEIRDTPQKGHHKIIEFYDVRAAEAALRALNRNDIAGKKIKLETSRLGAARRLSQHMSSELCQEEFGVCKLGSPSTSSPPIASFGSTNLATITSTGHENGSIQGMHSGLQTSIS

recombinant OML4 = biological target: T4, recombinant OML4
T4 chain: T2 chain

[1] = biological target: T5, OML4 full-length protein, yeast two-hybrid bait (OML4 cDNA in pGBKT7) (rice, UniProt Q64M78 1-1001); assay: yeast two-hybrid, OML4 full-length protein as bait
T5 construct: Expressed in yeast cells; also called Mei2-Like protein 4; LARGE1; not shown: fusion partner encoded by vector pGBKT7
T5 sequence: T2 chain
Excerpt: To further understand the molecular role of OML4 in grain growth control, we identified its interacting partners through a yeast two-hybrid (Y2H) assay. The OML4 full-length protein was used as the bait. Among several interacting proteins, six different clones corresponding to GSK2 were found in this screen. […] We further confirmed the interaction of OML4 with the full length GSK2 in yeast cells (FIG. 5A).
The cDNA sequences of GSK2 and OML4 were amplified using gene-specific primers (Table S4), and products were fused into the linearized pGADT7 and pGBKT7 vectors, respectively. Yeast two-hybrid analysis was conducted according to the manufacturer's instruction (Clontech, USA).

OML4-nLUC [2] = biological target: T6, OML4-nLUC (rice; firefly, UniProt Q64M78 1-1001); assay: firefly luciferase complementation imaging in N. benthamiana leaves
T6 construct: Co-expressed in N. benthamiana leaves; Order of the pieces follows the printed name; not shown: N-terminal fragment of firefly luciferase (nLUC)
T6 sequence: T2 chain
Protocol: (§1) (A) OML4 interacts with GSK2 in yeast cells. Yeast cells were cultured on SD/-Trp-Leu or SD/-Trp-Leu-His-Ade media. (B) OML4 associates with GSK2 in N. benthamiana. OML4-nLUC and GSK2-cLUC were co-expressed in N. benthamiana leaves. Luciferase activity was observed 48 hours after infiltration. The range of luminescence intensity was scaled by the pseudocolor bar. (C) Bimolecular fluorescence complementation (BiFC) assays shown that OML4 interacts with GSK2 in N. benthamiana. OML4-cYFP was coexpressed with GSK2-nYFP in leaves of N. benthamiana. (D) OML4 binds GSK2 in vitro. GSK2-GST was incubated with OML4-MBP and pulled down by OML4-MBP and detected by immunoblot with anti-GST antibody. IB: immunoblot. (E) Interaction between OML4 and GSK2 in the Co-IP assays. Anti-MYC beads were used to immunoprecipitate GSK2-GFP proteins. Gel blots were probed with anti-MYC or anti-GFP antibody. Bars: 50 μm in C.
(§2) We next verified the interaction between OML4 and GSK2 in plant cells using the firefly luciferase (LUC) complementation imaging assay (FIG. 5B). The OML4-nLUC and GSK2-cLUC were transformed and co-expressed in N. benthamiana leaves. […] We then performed bimolecular fluorescence complementation (BiFC) assay to test the interaction between OML4 and GSK2 in plant cells (FIG. 5C). […]

nLUC = biological target: T7, nLUC (firefly, UniProt P08659 1-416 = luciferase); assay: firefly luciferase complementation imaging, co-expression in N. benthamiana leaves
T7 construct: Control of the luciferase complementation imaging assay
T7 sequence (P08659 1-416): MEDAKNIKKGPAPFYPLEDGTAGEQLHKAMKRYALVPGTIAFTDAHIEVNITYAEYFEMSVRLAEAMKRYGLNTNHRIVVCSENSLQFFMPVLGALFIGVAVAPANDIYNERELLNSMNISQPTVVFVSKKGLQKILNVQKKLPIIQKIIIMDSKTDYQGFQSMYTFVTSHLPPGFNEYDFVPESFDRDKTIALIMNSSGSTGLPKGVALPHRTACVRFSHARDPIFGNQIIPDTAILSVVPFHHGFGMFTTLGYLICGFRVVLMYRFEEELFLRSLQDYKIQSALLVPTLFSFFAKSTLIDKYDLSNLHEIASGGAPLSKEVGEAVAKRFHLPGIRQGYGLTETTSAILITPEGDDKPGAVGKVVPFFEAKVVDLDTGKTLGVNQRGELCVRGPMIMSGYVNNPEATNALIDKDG
Protocol: as §1, §2

OML4-cYFP = biological target: T8, OML4-cYFP (rice, UniProt Q64M78 1-1001); assay: bimolecular fluorescence complementation (BiFC), confocal microscopy
T8 construct: Transiently expressed in N. benthamiana leaves; Order of the pieces follows the printed name; also called OML4 fused with the C-terminus of the yellow fluorescent protein; not shown: C-terminus of the yellow fluorescent protein (cYFP, vector pGBW414-cYFP)
T8 sequence: T2 chain
Protocol: as §1, §2

OML4-nLUC [3] = biological target: T6, OML4-nLUC; assay: firefly luciferase complementation imaging, co-expression in N. benthamiana leaves
Protocol: as §1, §2

B1: GSK2-GST (protein)
chain: MDQPAPAPEPMLLDAQPPAAVACDKKQQEGEAPYAEGNDAVTGHIISTTIGGKNGEPKRTISYMAERVVGTGSFGIVFQAKCLETGETVAIKKVLQDRRYKNRELQLMRAMDHPNVISLKHCFFSTTSRDELFLNLVMEYVPETLYRVLKHYSNANHRMPLIYVKLYMYQLFRGLAYIHTVPGVCHRDVKPQNVLVDPLTHQVKLCDFGSAKTLVPGEPNISYICSRYYRAPELIFGATEYTTSIDIWSAGCVLAELLLGQPLFPGESAVDQLVEIIKVLGTPTREEIRCMNPNYTEFRFPQIKAHPWHKVFHKRMPPEAIDLASRLLQYSPSLRCTALDACAHPFFDELREPNARLPNGRPFPPLFNFKHELANSSQELISRLIPEHVRRQATHNFFNTGS
phosphorylation level, phos-tag SDS-PAGE (OML4S105A, S607A-MBP): Mutations of the two aforementioned Ser residues to Ala reduced the phosphorylation level of OML4, although OML4^S105A,S607A was still phosphorylated by GSK2
phosphorylation, in vitro kinase assay, phos-tag SDS-PAGE (cOML4-Flag): The phosphorylated OML4-Flag, nOML4-Flag and cOML4-Flag were detected in the presence of GSK2-GST, while the phosphorylated OML4-Flag, nOML4-Flag and cOML4-Flag were not found in the absence of GSK2-GST
phosphorylation, in vitro kinase assay, phos-tag SDS-PAGE (OML4-Flag): The phosphorylated OML4-Flag, nOML4-Flag and cOML4-Flag were detected in the presence of GSK2-GST, while the phosphorylated OML4-Flag, nOML4-Flag and cOML4-Flag were not found in the absence of GSK2-GST
phosphorylation, phos-tag SDS-PAGE (nOML4(S105A)-FLAG): S(105) and S(607) partially influence the phosphorylation of OML4
phosphorylation, in vitro kinase assay, phos-tag SDS-PAGE (nOML4-Flag): The phosphorylated OML4-Flag, nOML4-Flag and cOML4-Flag were detected in the presence of GSK2-GST, while the phosphorylated OML4-Flag, nOML4-Flag and cOML4-Flag were not found in the absence of GSK2-GST
phosphorylation, phos-tag SDS-PAGE (cOML4(S607A)-FLAG): S(105) and S(607) partially influence the phosphorylation of OML4

B2: recombinant GSK2 (protein)
chain: B1 chain
phosphopeptides of OML4 found by LC-MS/MS after in vitro kinase reaction (recombinant OML4): We identified 18 phosphopeptides of OML4, which correspond to 14 phosphosites
phosphosites of OML4 found by LC-MS/MS after in vitro kinase reaction (recombinant OML4): We identified 18 phosphopeptides of OML4, which correspond to 14 phosphosites

B3: full length GSK2, yeast two-hybrid prey (GSK2 cDNA in pGADT7) (enzyme)
chain: B1 chain
notes: Expressed in yeast cells; The six GSK2 clones found in the first screen are not described further; also called glycogen synthase kinase 2; SHAGGY-like kinase; not shown: fusion partner encoded by vector pGADT7
binding result [1]: binds

B4: GSK2-cLUC (enzyme)
chain: B1 chain
notes: Co-expressed in N. benthamiana leaves; Order of the pieces follows the printed name; not shown: C-terminal fragment of firefly luciferase (cLUC)
binding result (OML4-nLUC [2]): binds
binding result (nLUC): no binding

B5: GSK2-nYFP (enzyme)
chain: B1 chain
notes: Transiently expressed in N. benthamiana leaves; Order of the pieces follows the printed name; also called GSK2 fused with the N-terminus of the yellow fluorescent protein; not shown: N-terminus of the yellow fluorescent protein (nYFP, vector pGBW414-nYFP)
binding result (OML4-cYFP): binds

B6: cLUC (other, firefly, UniProt P08659 398-550, looked up)
chain: MSGYVNNPEATNALIDKDGWLHSGDIAYWDEDEHFFIVDRLKSLIKYKGYQVAPAELESILLQHPNIFDAGVAGLPDDDAGELPAAVVVLEHGKTMTEKEIVDYVASQVTTAKKLRGGVVFVDEVPKGLTGKLDARKIREILIKAKKGGKSKL
notes: Control of the luciferase complementation imaging assay
binding result (OML4-nLUC [3]): no binding

Source: patent US20230081195A1 (INSTITUTE OF GENETICS AND DEVELOPMENT BIOLOGY CHINESE …, published 2023)
